From patent publication US20220288202A1, “Use of Calcineurin Inhibitor Free CTLA4-IG + Anti-IL6/IL6R For Long Term Immunosuppression in Solid Organ Transplant Recipients” (Cedars-Sinai Medical Center, priority 2019, published 2022)
Values joined by “and” are separate entries in the source; they are usually repeats but may differ in a detail not shown here. Equal values may be shown once. “Also recorded” adds a separate entry of the source.

What was measured:
[1] = system: highly HLA sensitized kidney transplant recipients; test: Experience with anti-IL-6/IL-6R+CTLA4-Ig, CNI-free and MMF-free, in human kidney transplant recipients (case courses); type: in vivo
Excerpt: Four patients were maintained on CNI-free and MMF-free immunosuppression on anti-IL-6R or anti-IL-6+CTLA4-Ig for a prolonged time period (years) after transplant. These patients received two infusions per month as their standard immunosuppression.

[2] = system: HLA antibodies (class I and class II); test: clazakizumab desensitization trial (NCT03380962): HLA antibody levels pre- and post-clazakizumab; type: in vivo, human
Protocol: (§1) Patients entered into the afore-described clazakizumab desensitization trial (NCT03380962) where 75% were in the 99-100% Panel Reactive Antibody (PRA) range received clazakizumab 25 mg subcutaneously monthly for up to 6 months. If transplanted, they received continued clazakizumab for up to 6 M post-transplant. This group of patients are exceedingly difficult to transplant due to high likelihood of severe antibody mediated rejection and graft loss post-transplant. Antibody levels, pre-post-transplant and Treg cells were monitored at concomitant time points.
(§2) As part of a phase I/II trial of clazakizumab for desensitization, HLA sensitized patients received anti-IL-6, 25 mg SC monthly×6 doses with monitoring of HLA antibody levels and Tregs. Patients were treated pre- and post-transplant with clazakizumab. Transplanted patients received monthly clazakizumab 25 mg subcutaneously starting 5-7 days post-transplant for 12 months. Tregs were determined by flow cytometry as CD4^+, CD25^+, CD127^dim, FoxP3^+ cell populations in CD4^+ cells. Determinations were made at baseline, at transplantation and day 180 post-transplant.

[3] = system: donor specific antibodies; test: clazakizumab desensitization trial: donor specific antibodies pre- and post-transplant; type: in vivo, human
Protocol: as §1
Transplant patients who were treated as described in the previous example were also monitored to assess the effect of clazakizumab on donor specific antibodies. Particularly, levels of donor specific antibodies were monitored in transplant patient samples pre- and post-transplant.

[4] = system: Treg cells (CD4+, CD25+, CD127dim, FoxP3+); test: Tregs by flow cytometry in clazakizumab-treated HLA sensitized patients; type: in vivo, human; conditions: for Mean Treg value: baseline 3.2+1.09%, in CD4+ cells
Protocol: as §2

[5] = in vivo; cited from earlier work
monkeys = conditions: monkey, in vivo; cited from earlier work
[6] = system: highly HLA sensitized patients (HLAi kidney transplant); test: clazakizumab desensitization trial: transplantation, rejection episodes and graft loss; type: in vivo, human; conditions: for highly sensitized patients able to receive transplants: after clazakizumab desensitization
Protocol: as §1, §2

[7] = system: patients/subjects taking clazakizumab; conditions: human, in vivo, cited from earlier work
[8] = post-transplant on clazakizumab

For `C=CC[C@@H]1/C=C(\C)C[C@H](C)C[C@H](OC)[C@H]2O[C@@](O)(C(=O)C(=O)N3CCCC[C@H]3C(=O)O[C@H](/C(C)=C/[C@@H]3CC[C@@H](O)[C@H](OC)C3)[C@H](C)[C@@H](O)CC1=O)[C@H](C)C[C@@H]2OC` [tacrolimus], the biopsy toxicity finding ([1]; patient, three years after anti-IL-6R start, tapered off) was “toxicity seen on a biopsy”.

For tocilizumab, the “duration of stable course with declining SCr” value ([1]; person on CTLA4-Ig + tocilizumab monthly) was “over 1.5 years” and the SCr course ([1]; person, chronic ABMR, on CTLA4-Ig, converted from CELLCEPT to tocilizumab monthly) was “stable with declining SCr”.

B1: clazakizumab (antibody, chains of the INN, looked up, V domains shown)
VH: EVQLVESGGGLVQPGGSLRLSCAASGFSLSNYYVTWVRQAPGKGLEWVGIIYGSDETAYATSAIGRFTISRDNSKNTLYLQMNSLRAEDTAVYYCARDDSSDWDAKFNLWGQGTLVTVSS
VL: AIQMTQSPSSLSASVGDRVTITCQASQSINNELSWYQQKPGKAPKLLIYRASTLASGVPSRFSGSGSGTDFTLTISSLQPDDFATYYCQQGYSLRNIDNAFGGGTKVEIK
notes: Genetically engineered humanized anti-IL-6 mAb
For B1, the “Mean MFI for HLA cl” value ([2]; post claza, pre-desensitization 13062±3123, p=0.05, nine transplanted patients) was 8585±4597 MFI, the “Mean MFI for HLA cll” value ([2]; post claza, pre-desensitization 13519±2966, p=0.03, nine transplanted patients) was 8344±4836 MFI and the “impact on HLA antibodies (class I and class II)” value ([2]; pre- vs post-clazakizumab 25 mg SC monthly) was “significant reductions; also recorded: reduced”. The “donor-specific antibodies present prior to transplant” value ([3]; at transplant) was “significantly reduced”, the “DSA status of DSA+ patients” value ([3]; by day 180 post-transplant) was “negative” and the “donor-specific antibodies present prior to transplant” value ([3]; post-transplant) was “disappeared”. For the same molecule, the pathogenic antibodies ([3]; up to 3 months post-transplant) was “significant reduction”, the “Mean Treg value” ([4]; at transplant, p=NS) was 3.5+1.75% and the “change in Treg cells” value ([4]; day 180 post-transplant, still on anti-IL-6 therapy) was “significant increase; also recorded: dramatic increase”. For the same molecule, the “Mean Treg value” ([4]; day 180 post-transplant, p=0.008) was 12.6+9.3%, the “elimination half-life (t1/2)” value [5] was “about 30 days” and the “monkeys with retained placentas in which excessive uterine hemorrhage led to moribund status” value (monkeys) was 3 of the 5. For the same molecule, the “highly sensitized patients able to receive transplants” value [6] was “all of these patients and 9/10”, the “highly sensitized patients able to receive transplants” value ([6]; listed as claza) was 10 patients and the “grafts lost due to rejection” value [6, 8] was “no grafts were lost; also recorded: no graft loss”. The “transplant patients with rejection episodes” value [6, 8] was “Two of the ten and 2 of 10”, the infusion reactions ([7]; iv) was “no infusion reactions” and the “severity of injection site reactions” value ([7]; sc) was “mild or moderate”. The demyelinating disorder events [7] was “rarely reported”, the malignancies [7] was “no imbalance of malignancies” and the “outcome of pregnancies in subjects taking clazakizumab” value [7] was “one spontaneous abortion”. The “reactivation of viral and other serious infections (e.g. EBV or TB)” value [7] was “rarely reported”.
